Source: publication PMC3764174

Biological target: PCNA3_(N106R)-P450cam fusion protein (Sulfolobus solfataricus | Pseudomonas putida)

PCNA2-G4S(P5)4G4S-PdX showed a substrate-dependent O2 consumption rate (monooxygenase activity) of PUPPET-P4 at 18 nM complex, 25°C of 6.5 µM/min.
